Source: patent EP2386565A2, “Compounds and methods to inhibit or augment an inflammatory response” (Cambridge Enterprise Ltd., priority 1999, dated 2000)
Where “and” joins values, the source holds several entries; their conditions need not be identical. Equal values may be shown once.

Key:
[1] = biological target: chemokine receptors on THP-1 cells; assay: 100 µM biotinylated peptide on THP-1 cells (4 x 10^5 per reaction), 4°C, streptavidin-peroxidase/TMB
[2] = biological target: chemokine receptors on the surface of Jurkat cells; assay: 100 µM biotinylated peptide on Jurkat cells, alone minus excess unlabeled peptide
[3] = biological target: chemokine receptors on THP-1 cells; assay: 100 µM biotinylated peptide on THP-1 cells, alone minus excess unlabeled peptide
[4] = biological target: chemokine receptors on the surface of Jurkat cells; assay: biotinylated peptide on cells, streptavidin-peroxidase
[5] = biological target: chemokine receptors on the surface of Jurkat cells; assay: 100 µM biotinylated peptide on Jurkat cells (10^6 per reaction), 4°C, streptavidin-peroxidase/TMB
[6] = biological target: chemokine receptors on the surface of Jurkat cells; assay: 100 µM biotinylated peptide on Jurkat cells with 100-fold excess of the same unlabeled peptide
[7] = biological target: chemokine receptors on THP-1 cells; assay: 100 µM biotinylated peptide on THP-1 cells with 100-fold excess of the same unlabeled peptide
[8] = biological target: CCR5 (human) (UniProt P51681); assay: 12-point Scatchard analysis, 0.03 nM 125I-RANTES on HOS CCR5 cells and parental line, 4°C, 2 hours
[9] = biological target: T1, Duffy Antigen Receptor for Chemokines (DARC) (human) (UniProt Q16570); assay: footnote c of Table 6; given as affinity constant
T1 sequence (looked up): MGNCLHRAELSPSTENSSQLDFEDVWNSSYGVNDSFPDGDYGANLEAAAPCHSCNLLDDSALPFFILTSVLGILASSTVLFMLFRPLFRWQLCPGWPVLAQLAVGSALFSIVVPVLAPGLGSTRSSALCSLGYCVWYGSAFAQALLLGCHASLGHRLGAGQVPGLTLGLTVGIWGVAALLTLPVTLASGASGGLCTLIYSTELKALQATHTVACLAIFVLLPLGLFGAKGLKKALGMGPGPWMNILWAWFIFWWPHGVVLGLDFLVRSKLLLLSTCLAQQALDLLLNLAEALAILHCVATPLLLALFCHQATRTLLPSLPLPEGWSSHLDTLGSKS

[10] = biological target: chemokine receptors on THP-1 cells; assay: binding to chemokine receptors on THP-1 cells; given as association constant

Chain of CCR5 (human) (P51681 whole entry): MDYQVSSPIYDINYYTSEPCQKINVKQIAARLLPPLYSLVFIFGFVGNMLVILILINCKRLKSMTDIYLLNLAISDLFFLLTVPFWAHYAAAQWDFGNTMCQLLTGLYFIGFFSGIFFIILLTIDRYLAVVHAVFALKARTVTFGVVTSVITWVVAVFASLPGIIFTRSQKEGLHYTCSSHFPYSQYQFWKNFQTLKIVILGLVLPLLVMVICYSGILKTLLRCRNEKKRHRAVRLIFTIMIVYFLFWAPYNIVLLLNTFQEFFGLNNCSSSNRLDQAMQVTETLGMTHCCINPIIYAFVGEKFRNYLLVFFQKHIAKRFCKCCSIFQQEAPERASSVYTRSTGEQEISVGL

Substance | ΔA450nm, alone [1] | ΔA450nm, specific binding [2] | ΔA450nm, specific binding [3] | ΔA450nm, alone [5] | ΔA450nm, +100-fold excess unlabeled peptide [6] | ΔA450nm, +100-fold excess unlabeled peptide [7] | further results
gp120:V3(IIIb) (peptide) | 0.268 A450 | 0.689 A450 | 0.137 A450 | 0.878 A450 | 0.189 A450 | 0.131 A450 | fold specific binding to Jurkat cells against THP-1 cells [4]: 5 fold
RANTES (from UniProt P13236 24-92) (ligand) | – | – | – | – | – | – | Kd [8]: 0.001 µM
gp120:V3(BaL) (peptide) | 0.642 A450 | < 0 A450 | 0.535 A450 | 0.167 A450 | 0.168 A450 | 0.107 A450 | –
WVQ (peptide) | – | – | – | – | – | – | Kd [9]: 2 µM
KQK (peptide) | – | – | – | – | – | – | Kd [10]: 0.5 µM and 1 µM
